Biological target: histone H4 (in the NCP), unmodified at K20 (human, UniProt P62805 1-103)
Test: cryo-EM structure

binding result: binds
B1: BARD1 (ARD–BRCT), residues 415–777, as tethered to the NCP in BARD1^AB–NCPub (domain or fragment)
chain: KLLPNMAVKRNHRGETLLHIASIKGDIPSVEYLLQNGSDPNVKDHAGWTPLHEACNHGHLKVVELLLQHKALVNTTGYQNDSPLHDAAKNGHVDIVKLLLSYGASRNAVNIFGLRPVDYTDDESMKSLLLLPEKNESSSASHCSVMNTGQRRDGPLVLIGSGLSSEQQKMLSELAVILKAKKYTEFDSTVTHVVVPGDAVQSTLKCMLGILNGCWILKFEWVKACLRRKVCEQEEKYEIPEGPRRSRLNREQLLPKLFDGCYFYLWGTFKHHPKDNLIKLVTAGGGQILSRKPKPDSDVTQTINTVAYHARPDSDQRFCTQYIIYEDLCNYHPERVRQGKVWKAPSSWFIDCVMSFELLPLDS

From paper PMC8680157 (Nature, 2021)
